Measurements as given in paper doi:10.1101/2024.07.30.605912 (bioRxiv, 2024).

Target: the molecule itself
Test: cryo-EM structure

B1: Salmonella typhimurium ArnC (undecaprenyl-phosphate 4-deoxy-4-formamido-L-arabinose transferase) (enzyme)
chain: MFDAAPIKKVSVVIPVYNEQESLPELIRRTTTACESLGKAWEILLIDDGSSDSSAELMVKASQEADSHIISILLNRNYGQHAAIMAGFSHVSGDLIITLDADLQNPPEEIPRLVAKADEGFDVVGTVRQNRQDSLFRKSASKIINLLIQRTTGKAMGDYGCMLRAYRRPIIDTMLRCHERSTFIPILANIFARRATEIPVHHAEREFGDSKYSFMRLINLMYDLVTCLTTTPLRLLSLLGSVIAIGGFSLSVLLIVLRLALGPQWAAEGVFMLFAVLFTFIGAQFIGMGLLGEYIGRIYNDVRARPRYFVQQVIYPESTPFTEESHQ
stoichiometry N: 4
